Test results published in publication doi:10.1101/686782 (bioRxiv, 2019).

B1: P. savastanoi FliP (natural protein)
chain: ADPLSIPAITLSNGADGQQEYSVSLQILLIMTALSFIPAFVMLMTSFTRIIIVFSILRQALGLQQTPSNQILTGMALFLTMFIMAPVFDRVNQDALQPYLAEKLSAQDAVAKAQVPIKDFMLAQTRTSDLELFMRLSKRTDIPTPDAAPLTILVPAFVISELKTAFQIGFMIFIPFLIIDLVVASVLMAMGMMMLSPLIISLPFKIMLFVLVDGWALIVGTLAGSFGGV
B2: P. savastanoi FliQ (natural protein)
chain: MTPEVAVDLFREALWLTTVLVAILVVPSLLCGLLVAMFQAATQINEQTLSFLPRLLVMLVTLIVIGPWLLKIFMEYMLSLYTSIPTLIG
notes: also called FliQ5

Target: the molecule itself
Assay: cryo-EM structure

Row | Protein | stoichiometry N
1 | B1 | 5
2 | B2 | 5
